Test results taken from article PMC2967539.

Biological target: human dipeptidyl peptidase IV (human) (UniProt P27487)
Sequence of UniProt P27487 (P27487 whole entry): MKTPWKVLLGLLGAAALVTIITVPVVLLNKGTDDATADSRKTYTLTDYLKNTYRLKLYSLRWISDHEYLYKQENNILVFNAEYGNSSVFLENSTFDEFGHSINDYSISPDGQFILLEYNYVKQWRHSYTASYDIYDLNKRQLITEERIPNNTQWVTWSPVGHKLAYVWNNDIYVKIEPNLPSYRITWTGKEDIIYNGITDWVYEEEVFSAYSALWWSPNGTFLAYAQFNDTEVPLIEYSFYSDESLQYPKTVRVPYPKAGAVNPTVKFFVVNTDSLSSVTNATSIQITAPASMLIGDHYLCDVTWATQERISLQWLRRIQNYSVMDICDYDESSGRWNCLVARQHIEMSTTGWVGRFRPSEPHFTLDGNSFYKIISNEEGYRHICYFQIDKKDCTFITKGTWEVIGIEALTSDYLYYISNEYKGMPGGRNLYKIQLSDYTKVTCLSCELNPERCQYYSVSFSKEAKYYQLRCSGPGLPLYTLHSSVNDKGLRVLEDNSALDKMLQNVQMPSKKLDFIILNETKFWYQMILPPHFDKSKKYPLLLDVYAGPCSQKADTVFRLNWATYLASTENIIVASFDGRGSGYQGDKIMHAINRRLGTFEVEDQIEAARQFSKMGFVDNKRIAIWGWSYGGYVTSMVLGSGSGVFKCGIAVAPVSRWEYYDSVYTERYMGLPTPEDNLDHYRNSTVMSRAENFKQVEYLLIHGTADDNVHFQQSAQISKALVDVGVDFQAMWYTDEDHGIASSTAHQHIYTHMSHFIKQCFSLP

For “Tat-1-86 protein (Immuno-Diagnostics) (from UniProt P04610 1-86) (natural protein)”, the cleavage of GLP1 (31.25 uM) by purified DPPIV (16 nM) in the presence of 1 uM Tat-1-86, MALDI-TOF mass spectrometry, after 5 min at 37 °C (all GLP1 cleaved within 5 min without Tat) was 40%.
